Assay results: patent US20150031620

Experiments:
[1] = test system: mutant rTMD23NA (thrombomodulin domains 2 and 3 with N364A and N391A)
[2] = test system: recombinant human TMD23 (wild-type thrombomodulin domains 2 and 3)
Sequence of recombinant human TMD23 (wild-type thrombomodulin domains 2 and 3) (chain, as listed by the source): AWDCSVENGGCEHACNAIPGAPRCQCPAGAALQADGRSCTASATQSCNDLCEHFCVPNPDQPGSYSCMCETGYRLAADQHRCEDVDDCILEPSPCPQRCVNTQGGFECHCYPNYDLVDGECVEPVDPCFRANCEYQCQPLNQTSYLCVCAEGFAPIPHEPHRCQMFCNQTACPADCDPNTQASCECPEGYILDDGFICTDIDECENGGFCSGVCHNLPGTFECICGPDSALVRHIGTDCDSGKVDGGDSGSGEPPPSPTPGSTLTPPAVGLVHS

Sequence of mutant rTMD23NA (thrombomodulin domains 2 and 3 with N364A and N391A) (chain, as listed by the source N364A N391A): as the sequence (chain, as listed by the source) above, with N141A, N168A counted along it

For thrombin, the “thrombin-dependent activation of protein C (hydrolysis of Chromozym PCa, absorbance at 405 nm)” value [1] was “The mutant rTMD23NA lost its cofactor activity in catalyzing thrombin-dependent activation of Protein C” and the “thrombin-dependent activation of protein C (hydrolysis of Chromozym PCa, absorbance at 405 nm)” value [2] was “only recombinant TMD23 gave rise to thrombin-dependent protein C activation”.
